Substrate: O=P(O)(O)OC[C@H]1OC(O)[C@@H](O)[C@@H](O)[C@@H]1O
Assay: purified protein
Format: biochemical, Bacillus amyloliquefaciens
Conditions: 0.5 mM Co2+ (general method), phosphate pH 7.5, 50 °C

B1: BsM6PI (Bacillus subtilis subsp. subtilis str. 168; K96Q) (protein)
chain: MTQSPIFLTPVFKEKIWGGTALRDRFGYSIPSESTGECWAISAHPKGPSTVANGPYKGKTLIELWEEHREVFGGVEGDRFPLLTKLLDVKEDTSIQVHPDDYYAGENEEGELGKTECWYIIDCKENAEIIYGHTARSKTELVTMINSGDWEGLLRRIKIKPGDFYYVPSGTLHALCKGALVLETQQNSDATYRVYDYDRLDSNGSPRELHFAKAVNAATVPHVDGYIDESTESRKGITIKTFVQGEYFSVYKWDINGEAEMAQDESFLICSVIEGSGLLKYEDKTCPLKKGDHFILPAQMPDFTIKGTCTLIVSHI
notes: full length, N-terminal His6 fusion (pET28a, BamHI/SalI), E. coli BL21(DE3), Ni-NTA; primers encode N-terminus MTQS and C-terminus IVSHI
**Q.** How did the Km turn out when B1 was run?
**A.** 12 mM

Source: PMC4718643, “Characterization of a Mannose-6-Phosphate Isomerase from Bacillus amyloliquefaciens and Its Application in Fructose-6-Phosphate Production” (PLoS ONE, 2015)
